{"source": "patent US20190389914A1", "about": "(University of California, published 2019)", "binders": {"B1": {"name": "GAL4 DNA binding domain fusion to PYR1 (pBD-PYR1), wild type (receptor)", "chain": "MKLLSSIEQACDICRLKKLKCSKEKPKCAKCLKNNWECRYSPKTKRSPLTRAHLTEVESRLERLEQLFLLIFPREDLDMILKMDSLQDIKALLTGLFVQDNVNKDAVTDRLASVETDMPLTLRQHRISATSSSEESSNKGQRQLTVSMPSELTPEERSELKNSIAEFHTYQLDPGSCSSLHAQRIHAPPELVWSIVRRFDKPQTYKHFIKSCSVEQNFEMRVGCTRDVIVISGLPANTSTERLDILDDERRVTGFSIIGGEHRLTNYKSVTTVHRFEKENRIWTVVLESYVVDMPEGNSEDDTRMFADTVVKLNLQKLATVAEAMARNSGDGSGSQVT", "notes": "Yeast two-hybrid bait expressed in S. cerevisiae; also called WT"}}, "key": {"[1]": {"biological_target": "T1, GAL4 activation domain fusion to HAB1 E203W (Arabidopsis thaliana (Mouse-ear cress), UniProt Q9CAJ0 4-511)", "T1 construct": "Mutant of the pACT-HAB1 template, which lacks the three N-terminal amino acids of HAB1", "T1 sequence": "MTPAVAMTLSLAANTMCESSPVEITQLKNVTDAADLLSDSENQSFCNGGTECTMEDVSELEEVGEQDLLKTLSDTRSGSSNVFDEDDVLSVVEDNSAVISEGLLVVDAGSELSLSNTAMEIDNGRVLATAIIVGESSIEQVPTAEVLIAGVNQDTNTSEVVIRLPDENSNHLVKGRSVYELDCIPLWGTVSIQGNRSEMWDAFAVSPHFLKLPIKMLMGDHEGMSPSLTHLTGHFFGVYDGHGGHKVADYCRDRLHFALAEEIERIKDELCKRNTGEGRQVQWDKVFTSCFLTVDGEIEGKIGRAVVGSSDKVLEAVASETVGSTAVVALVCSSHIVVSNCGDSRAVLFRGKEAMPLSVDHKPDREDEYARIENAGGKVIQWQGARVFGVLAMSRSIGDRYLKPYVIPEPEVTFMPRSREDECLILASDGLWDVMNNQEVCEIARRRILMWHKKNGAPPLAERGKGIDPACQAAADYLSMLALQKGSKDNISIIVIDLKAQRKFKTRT", "assay": "Y2H, beta-gal staining"}, "[2]": {"biological_target": "T2, GAL4 activation domain fusion to HAB1^V393R (Arabidopsis thaliana (Mouse-ear cress), UniProt Q9CAJ0 4-511)", "T2 construct": "Mutant of the pACT-HAB1 template, which lacks the three N-terminal amino acids of HAB1; Denoted HAB1^!", "T2 sequence": "T1 sequence with W200E, V390R", "assay": "Y2H, beta-gal staining"}}, "note": "Residue numbers refer to the chain shown, from its start.", "data": [{"binder": "B1", "values": [{"measurement": "binding result", "setting": "[1]", "value": "no binding (tested: 10 µM ABA)"}, {"measurement": "binding result", "setting": "[2]", "value": "no binding (tested: 10 µM ABA)"}]}]}
